Results taken from the supplement of paper PMC9732359.
± gives the uncertainty stated by the source.

Assay: protein stability index of a GFP-peptide fusion (yeast GPS) (PSI 1-4); higher = more stable; sorted into four equal gates, so the index is relative within each strain
Settings: ubr1∆
In short: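 Tiled 17-residue yeast protein peptides were fused downstream of GFP in a plasmid that also expresses Cherry, and the pooled library was carried in yeast. Mid-log cultures in leucine-free medium were sorted into four equal gates by GFP/Cherry fluorescence ratio, and plasmids from each gate were PCR-amplified and Illumina-sequenced, with reads assigned to strains by barcodes. The protein stability index for each peptide was each gate's read frequency times its gate number, summed.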

For LKNTKYFQQTTIDWVEA [PRP8], which protein stability index is on record?
The protein stability index was 2.75 ± 0.072.

With LKPVDKLKPMNIERKQT [SIN4] as the sequence, how does the protein stability index read?
The protein stability index was 3.04 ± 0.11.

Which protein stability index does the source give for LKTFNGSLALLKLSMAD [POP4] here?
The protein stability index was 2.36 ± 0.036.

Which protein stability index does the source give for LKVRKGHIAKLMATEYQ [RPB2] here?
The protein stability index was 1.86 ± 0.057.

For LKWIDTASKFGKGRFQT [RPL3], which protein stability index is on record?
The protein stability index was 3.09 ± 0.065.

With LLDVKLAIDNMYILGMC [YCG1] as the sequence, how does the protein stability index read?
Its protein stability index is 2.12 ± 0.05.

With LLDVVKGTEASNDIIDK [YDL116W/NUP84] as the sequence, how does the protein stability index read?
Its protein stability index is 1.47 ± 0.041.

Which protein stability index does the source give for LLHETNDSFKGLITNKM [PRP8] here?
Its protein stability index is 3.24 ± 0.12.

Which protein stability index does the source give for LLHNHLKSIESLKLENS [SMC2] here?
The protein stability index was 2.52 ± 0.21.

With LLIATNLKEYNKFMSIF [SRB8] as the sequence, how does the protein stability index read?
The protein stability index was 1.94 ± 0.086.

For LLISDTESNELIQKLQN [IRR1], which protein stability index is on record?
Its protein stability index is 2.9 ± 0.084.

With LLNKNTGNNLYDRNSNN [SWI1] as the sequence, how does the protein stability index read?
Its protein stability index is 2.9 ± 0.038.

With LLPLVVSNISCLTGTVA [ECM29] as the sequence, how does the protein stability index read?
The protein stability index was 1.45 ± 0.037.

With LLQGGAKVVVTTSRFSK [FAS2] as the sequence, how does the protein stability index read?
The protein stability index was 2.78 ± 0.047.

For LLSIKLPGKVNTKEEFA [SNF5], which protein stability index is on record?
The protein stability index was 2.51 ± 0.23.

With LLSKKHGQLKLSIQYMI [RPN5] as the sequence, how does the protein stability index read?
Its protein stability index is 1.65 ± 0.053.

Which protein stability index does the source give for LLTCYELEKKYHGNECE [SRB8] here?
Its protein stability index is 3.21 ± 0.055.

With LLVKFIKFFWNNTHVGR [YLR018C/POM34] as the sequence, how does the protein stability index read?
Its protein stability index is 2.66 ± 0.095.

For LLVVIFKKTLRSRISSP [SRB4], which protein stability index is on record?
Its protein stability index is 1.95 ± 0.11.

Which protein stability index does the source give for LMKKACYVGLLTAIPIL [SNU114] here?
Its protein stability index is 1.66 ± 0.032.

Which protein stability index does the source give for LMNGVKPFKSFLKKNII [FAS1] here?
Its protein stability index is 3.27 ± 0.087.

With LMYATDWQMMTSPVTGA [CSL4] as the sequence, how does the protein stability index read?
Its protein stability index is 2.79 ± 0.28.

Which protein stability index does the source give for LNAINNAEKTGKRQVLL [RPS22B] here?
The protein stability index was 3.17 ± 0.05.

With LNFSTTAPANTTDANGS [MED2] as the sequence, how does the protein stability index read?
The protein stability index was 2.78 ± 0.057.

For LNIGLGAVGLKDLTLCR [YCS4], which protein stability index is on record?
Its protein stability index is 2.53 ± 0.056.

Which protein stability index does the source give for LNLDEIVACELILSGDT [YJL039C/NUP192] here?
The protein stability index was 2.6 ± 0.12.

Which protein stability index does the source give for LNLNNSELQPQNRSLQE [SNF2] here?
The protein stability index was 3.27 ± 0.055.

Which protein stability index does the source give for LNPNEYFSVTTARRNVS [SWI3] here?
Its protein stability index is 2.19 ± 0.076.

Which protein stability index does the source give for LNQLDGFETSKNIKIIM [RPT6] here?
The protein stability index was 2.7 ± 0.18.

For LNRIKKYLLTQRVFKPV [PRP8], which protein stability index is on record?
The protein stability index was 2.48 ± 0.069.

With LPEQLKSGKFCSHCGCV [SNM1] as the sequence, how does the protein stability index read?
The protein stability index was 2.7 ± 0.071.

For LPIYDSLMSSQNKLFYI [SIR3], which protein stability index is on record?
Its protein stability index is 1.38 ± 0.093.

For LPKIKTVRKSIACVLTV [RPL35A], which protein stability index is on record?
Its protein stability index is 2.17 ± 0.14.

For LPKVRYNVEKVKRLMDF [NSL1], which protein stability index is on record?
Its protein stability index is 2.15 ± 0.081.

Which protein stability index does the source give for LPLNKPRLEKLINEILL [RGR1] here?
The protein stability index was 2.48 ± 0.041.

Which protein stability index does the source give for LPTTVVSNPGDNPPPAD [MED2] here?
Its protein stability index is 3.11 ± 0.037.

For LPTVGFDFIKDNETPSK [YOR098C/NUP1], which protein stability index is on record?
The protein stability index was 3.27 ± 0.053.

Which protein stability index does the source give for LPVKEFQIIDTLLPGLQ [RPS2] here?
Its protein stability index is 1.5 ± 0.063.

Which protein stability index does the source give for LPVKHPELFESLGIAQP [RPT6] here?
Its protein stability index is 2.73 ± 0.054.

For LPVNIRRIIQNAQQTFH [RPO21], which protein stability index is on record?
Its protein stability index is 1.56 ± 0.051.

For LQIESVTKETVHPRKSY [PRP8], which protein stability index is on record?
Its protein stability index is 3.11 ± 0.11.

For LQIGDVVERHLEDGDVV [RPO31], which protein stability index is on record?
The protein stability index was 3.39 ± 0.098.

For LQKQILTVENKLQFETD [SMC1], which protein stability index is on record?
The protein stability index was 2.9 ± 0.046.

With LQKVENQTIKEAKDAII [YIL149C/MLP2] as the sequence, how does the protein stability index read?
Its protein stability index is 3.13 ± 0.034.

Which protein stability index does the source give for LQMYSKIRRHPNIMLIF [FAS1] here?
The protein stability index was 1.91 ± 0.034.

Which protein stability index does the source give for LQRDLFIRLPHWPLNWY [RGR1] here?
Its protein stability index is 2.11 ± 0.076.

With LQVSEKDLFELERYYKE [ARP7] as the sequence, how does the protein stability index read?
Its protein stability index is 3.46 ± 0.065.

For LQWHAMIELICSSATVP [AAR2], which protein stability index is on record?
Its protein stability index is 1.75 ± 0.057.

With LQYANNAVISHANAAAV [SIN4] as the sequence, how does the protein stability index read?
Its protein stability index is 1.92 ± 0.03.

Which protein stability index does the source give for LRDHALSLTAFTKNEEK [ITC1] here?
The protein stability index was 1.86 ± 0.046.

For LREAPADYWTHAYRDVL [SNF6], which protein stability index is on record?
Its protein stability index is 2.38 ± 0.061.

With LREEIFIANEGVHTGQF [RPL2A] as the sequence, how does the protein stability index read?
Its protein stability index is 3.03 ± 0.059.

With LREFRITHNTNITDNLF [GRR1] as the sequence, how does the protein stability index read?
The protein stability index was 2.07 ± 0.11.

Which protein stability index does the source give for LRIVTHLAICLDIINPG [YDL116W/NUP84] here?
Its protein stability index is 1.82 ± 0.067.

Which protein stability index does the source give for LRKQYSAIDEEIEELID [SMC3] here?
The protein stability index was 3.26 ± 0.2.

For LRLDGHTKSDERSELLR [SNF2], which protein stability index is on record?
The protein stability index was 3.33 ± 0.078.

Which protein stability index does the source give for LRLGRGINPNTFRIFHN [YDL088C/ASM4] here?
The protein stability index was 1.65 ± 0.038.

Which protein stability index does the source give for LRLPFSAAMSIDKLSDV [PRP8] here?
Its protein stability index is 2.3 ± 0.033.

Which protein stability index does the source give for LRLRISRKRNEEEDAKN [RPL31A] here?
The protein stability index was 2.32 ± 0.14.

Which protein stability index does the source give for LRLTEQKSPKIRDPLTQ [RPC82] here?
Its protein stability index is 1.92 ± 0.045.

Which protein stability index does the source give for LRNKIAGYTTHLMKRIQ [RPS17A] here?
Its protein stability index is 2.99 ± 0.076.

Which protein stability index does the source give for LRSRLQQQQQQQQQTSP [SNF5] here?
The protein stability index was 2.78 ± 0.049.

Which protein stability index does the source give for LRTVKEVQFGLFSPEEV [RPO21] here?
The protein stability index was 2.95 ± 0.043.

With LRVDEVQGKNLLTNFHG [RPS1A] as the sequence, how does the protein stability index read?
The protein stability index was 3.26 ± 0.041.

With LRYYKNIWLNNKIINWE [NUT1] as the sequence, how does the protein stability index read?
The protein stability index was 3.39 ± 0.16.

With LSDNAKTLHSQMMSKGI [RPC34] as the sequence, how does the protein stability index read?
Its protein stability index is 3.11 ± 0.056.

For LSDVAFYVQDVYKDNLS [RPO31], which protein stability index is on record?
Its protein stability index is 1.22 ± 0.14.

For LSGGGHDNHGNKLGNKR [CDC53], which protein stability index is on record?
The protein stability index was 3.65 ± 0.23.

Which protein stability index does the source give for LSGLAQRKTNGASNGDD [BRN1] here?
The protein stability index was 3.6 ± 0.15.

With LSINEKDFVTMAIEIIN [YCG1] as the sequence, how does the protein stability index read?
Its protein stability index is 2.15 ± 0.053.

Which protein stability index does the source give for LSKMRDSVLQLASFEKT [RPO31] here?
The protein stability index was 3.01 ± 0.11.

Which protein stability index does the source give for LSLTAVPSFLRPDITMY [GRR1] here?
The protein stability index was 2.33 ± 0.043.

Which protein stability index does the source give for LSNPSNQNICTSVTRRS [GRR1] here?
The protein stability index was 2.53 ± 0.039.

For LSRLSTASKIIVIDVDY [MED1], which protein stability index is on record?
The protein stability index was 2.41 ± 0.074.

With LSRYVKWPEYVRVQRQK [RPL8A] as the sequence, how does the protein stability index read?
The protein stability index was 3.02 ± 0.22.

With LSSYQKKIIKCDEHMGL [PRE5] as the sequence, how does the protein stability index read?
The protein stability index was 2.71 ± 0.22.

Which protein stability index does the source give for LSTLPAGKSLVSKSEPK [QCR2] here?
The protein stability index was 3.44 ± 0.14.

With LTADARSMIEHARTAAV [PUP2] as the sequence, how does the protein stability index read?
The protein stability index was 2.71 ± 0.084.

With LTEAVEDGPRPFKVFLD [RPL5] as the sequence, how does the protein stability index read?
Its protein stability index is 3.23 ± 0.036.

For LTEEELKTRYVGRQDPK [RPN11], which protein stability index is on record?
Its protein stability index is 3.56 ± 0.21.

For LTFILGQLLSVKFLVYQ [YML031W/NDC1], which protein stability index is on record?
Its protein stability index is 1.69 ± 0.097.

With LTFVSVDEELGPSIYKT [SCL1] as the sequence, how does the protein stability index read?
Its protein stability index is 2.99 ± 0.067.

For LTGEAEIEQPVTTFVFT [FAS1], which protein stability index is on record?
Its protein stability index is 2.4 ± 0.055.

For LTHVDLIEKFLRYNPLE [RPB10], which protein stability index is on record?
The protein stability index was 3.12 ± 0.04.

With LTIFDSVDESARIKDAF [YJL039C/NUP192] as the sequence, how does the protein stability index read?
The protein stability index was 3.02 ± 0.093.

For LTIVTCKQFPKLSCIQL [SRB8], which protein stability index is on record?
The protein stability index was 1.6 ± 0.03.

Which protein stability index does the source give for LTKYIRSKNLIFNGETL [GRR1] here?
Its protein stability index is 1.91 ± 0.06.

Which protein stability index does the source give for LTNGVTEHVRQNAKLLA [RRP6] here?
Its protein stability index is 1.59 ± 0.069.

For LTVIEKLDSKKILPTDI [SRP68], which protein stability index is on record?
Its protein stability index is 2.71 ± 0.061.

Which protein stability index does the source give for LTYLYEMKNIRGPYLVI [SNF2] here?
Its protein stability index is 1.22 ± 0.042.

For LVAKLKKVKSASKKSGG [SMC4], which protein stability index is on record?
The protein stability index was 2.45 ± 0.052.

Which protein stability index does the source give for LVDENTDYLYRRLHDEN [YCS4] here?
Its protein stability index is 2.24 ± 0.034.

For LVDNLNAEVVAGNIKCR [BRR2], which protein stability index is on record?
Its protein stability index is 1.45 ± 0.075.

Which protein stability index does the source give for LVDVMTTQGGLTSVTRH [RPO21] here?
Its protein stability index is 2.3 ± 0.069.

For LVEARSLGHQTSLITAV [MTR3], which protein stability index is on record?
Its protein stability index is 1.25 ± 0.064.

Which protein stability index does the source give for LVEPSKVGQFDQVLNLC [FAS1] here?
Its protein stability index is 2.73 ± 0.16.

Which protein stability index does the source give for LVFCKHITSVPISAVLR [GRR1] here?
The protein stability index was 1.71 ± 0.042.

With LVLADAFDIELSEFGIK [YCS4] as the sequence, how does the protein stability index read?
The protein stability index was 2.89 ± 0.046.

For LVLLELVSSGDRFIELI [YML103C/NUP188], which protein stability index is on record?
Its protein stability index is 2.3 ± 0.088.
